Measurements published in patent US20200299373A1.
Blank lines part the entries; values can stand above or below the binder they belong to.

Assays:
[1] = molecular target: recombinant human FAM19A5 protein (His-tagged) (human) (UniProt Q7Z5A7); assay: two-site sandwich ELISA; capture antibody 13B4; biotinylated detection antibody P2-F11; antigen in ng/mL
[2] = molecular target: recombinant human FAM19A5 protein (His-tagged) (human) (UniProt Q7Z5A7); assay: two-site sandwich ELISA; capture antibody 13B4; S/N = O.D. at 10 ng/mL antigen / O.D. at 0 ng/mL; O.D. in column 0 printed 0.18
[3] = molecular target: recombinant human FAM19A5 protein (His-tagged) (human) (UniProt Q7Z5A7); assay: two-site sandwich ELISA; capture antibody P2-A03; biotinylated detection antibody P2-F11; antigen in ng/mL
[4] = molecular target: recombinant human FAM19A5 protein (His-tagged) (human) (UniProt Q7Z5A7); assay: two-site sandwich ELISA; capture antibody 1-65; S/N = O.D. at 10 ng/mL antigen / O.D. at 0 ng/mL; O.D. in column 0 printed 0.12
[5] = molecular target: recombinant human FAM19A5 protein (His-tagged) (human) (UniProt Q7Z5A7); assay: two-site sandwich ELISA; capture antibody 3-2; S/N = O.D. at 10 ng/mL antigen / O.D. at 0 ng/mL; O.D. in column 0 printed 0.13
[6] = molecular target: recombinant human FAM19A5 protein (His-tagged) (human) (UniProt Q7Z5A7); assay: two-site sandwich ELISA; capture antibody 3-2; biotinylated detection antibody P2-F11; antigen in ng/mL
[7] = molecular target: recombinant human FAM19A5 protein (His-tagged) (human) (UniProt Q7Z5A7); assay: two-site sandwich ELISA; capture antibody 1-65; biotinylated detection antibody P2-F11; antigen in ng/mL
[8] = molecular target: recombinant human FAM19A5 protein (His-tagged) (human) (UniProt Q7Z5A7); assay: ELISA on N'-Term His FAM19A5, fit of the titration (OD 492 nm); R2 printed 0.9692
[9] = molecular target: recombinant human FAM19A5 protein (His-tagged) (human) (UniProt Q7Z5A7); assay: two-site sandwich ELISA; capture antibody 2-13; biotinylated detection antibody P2-F11; antigen in ng/mL
[10] = molecular target: recombinant human FAM19A5 protein (His-tagged) (human) (UniProt Q7Z5A7); assay: two-site sandwich ELISA; capture antibody 2-13; S/N = O.D. at 10 ng/mL antigen / O.D. at 0 ng/mL; O.D. in column 0 printed 0.29
[11] = molecular target: recombinant human FAM19A5 protein (His-tagged) (human) (UniProt Q7Z5A7); assay: two-site sandwich ELISA; capture antibody P2-A03; S/N = O.D. at 10 ng/mL antigen / O.D. at 0 ng/mL; O.D. in column 0 printed 0.09
[12] = molecular target: recombinant human FAM19A5 protein (His-tagged) (human) (UniProt Q7Z5A7); assay: ELISA on N'-Term His FAM19A5, fit of the titration; R2 printed 0.9692
[13] = molecular target: recombinant human FAM19A5 protein (His-tagged) (human) (UniProt Q7Z5A7); assay: ELISA on N'-Term His FAM19A5, fit of the titration (OD 492 nm); R2 printed 0.8703
F2-03-BSA (human) = molecular target: T1, F2-03-BSA (human); assay: ELISA on mutant F2 peptide-BSA #3; details: remark: other sources report otherwise
T1 chain: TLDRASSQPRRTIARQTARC

[14] = molecular target: recombinant human FAM19A5 protein (His-tagged) (human) (UniProt Q7Z5A7); assay: ELISA on coated FAM19A5, as in Example 6
[15] = molecular target: recombinant human FAM19A5 protein (His-tagged) (human) (UniProt Q7Z5A7); assay: two-site sandwich ELISA; capture antibody 13B4; biotinylated detection antibody P2-A03; antigen in ng/mL
[16] = molecular target: recombinant human FAM19A5 protein (His-tagged) (human) (UniProt Q7Z5A7); assay: two-site sandwich ELISA; capture antibody P2-F11; biotinylated detection antibody P2-A03; antigen in ng/mL
[17] = molecular target: recombinant human FAM19A5 protein (His-tagged) (human) (UniProt Q7Z5A7); assay: two-site sandwich ELISA; capture antibody 2-13; S/N = O.D. at 10 ng/mL antigen / O.D. at 0 ng/mL; O.D. in column 0 printed 0.22
[18] = molecular target: recombinant human FAM19A5 protein (His-tagged) (human) (UniProt Q7Z5A7); assay: two-site sandwich ELISA; capture antibody P2-F11; S/N = O.D. at 10 ng/mL antigen / O.D. at 0 ng/mL; O.D. in column 0 printed 0.14
[19] = molecular target: recombinant human FAM19A5 protein (His-tagged) (human) (UniProt Q7Z5A7); assay: two-site sandwich ELISA; capture antibody 3-2; biotinylated detection antibody P2-A03; antigen in ng/mL
[20] = molecular target: recombinant human FAM19A5 protein (His-tagged) (human) (UniProt Q7Z5A7); assay: ELISA on N'-Term His FAM19A5, fit of the titration; R2 printed 0.9746
[21] = molecular target: recombinant human FAM19A5 protein (His-tagged) (human) (UniProt Q7Z5A7); assay: two-site sandwich ELISA; capture antibody 1-65; biotinylated detection antibody P2-A03; antigen in ng/mL
[22] = molecular target: recombinant human FAM19A5 protein (His-tagged) (human) (UniProt Q7Z5A7); assay: two-site sandwich ELISA; capture antibody 2-13; biotinylated detection antibody P2-A03; antigen in ng/mL
[23] = molecular target: recombinant human FAM19A5 protein (His-tagged) (human) (UniProt Q7Z5A7); assay: ELISA on N'-Term His FAM19A5, fit of the titration (OD 492 nm); R2 printed 0.9746
[24] = molecular target: recombinant human FAM19A5 protein (His-tagged) (human) (UniProt Q7Z5A7); assay: two-site sandwich ELISA; capture antibody 1-65; S/N = O.D. at 10 ng/mL antigen / O.D. at 0 ng/mL; O.D. in column 0 printed 0.15
[25] = molecular target: recombinant human FAM19A5 protein (His-tagged) (human) (UniProt Q7Z5A7); assay: two-site sandwich ELISA; capture antibody 3-2; S/N = O.D. at 10 ng/mL antigen / O.D. at 0 ng/mL; O.D. in column 0 printed 0.16
[26] = molecular target: recombinant human FAM19A5 protein (His-tagged) (human) (UniProt Q7Z5A7); assay: two-site sandwich ELISA; capture antibody 13B4; S/N = O.D. at 10 ng/mL antigen / O.D. at 0 ng/mL; O.D. in column 0 printed 0.22

O.D., antigen 100 [1]: 0.2
O.D., antigen column 10 [1]: 0.18
S/N [2]: 1
O.D., antigen 100 [3]: 0.09
O.D., antigen column 10 [3]: 0.09
S/N [4]: 1.7
S/N [5]: 13.9
O.D., antigen 100 [6]: 2.02
O.D., antigen column 10 [6]: 1.81
O.D., antigen 100 [7]: 1.25
O.D., antigen column 10 [7]: 0.2
Bmax [8]: 3.26
O.D., antigen 100 [9]: 1.83
O.D., antigen column 10 [9]: 2.04
S/N [10]: 7
S/N [11]: 1
Kd [12]: 0.41 nM
B1: anti-FAM19A5 antibody P2-F11 (antibody, V domains shown)
VH: QEQLVESGGRLVTPGTTLTLTCTVSGFSLSSYGVSWVRQAPGKGLEWIGYIANNYNPHYASWAKGRFTISKTSSTTVDLKMTSLTTEDTATYFCARDNYGMDPWGPGTLVTVSS
VL: ELDLTQTPSSVSAAVGGTVTINCQASQSVYNNKNLAWYQQKPGQPPKLLIYAASTLASGVSSRFKGSGSGTQFTLTISDVQCDDAATYYCQGEFSCSSADCNAFGGGTELEILR
modifications: Biotinylated when used as detection antibody in FIG. 6B.

Bmax [13]: 2.94
O.D (492nm) (F2-03-BSA (human)): 0.055
Kd [14]: 0.17 nM
B2: anti-FAM19A5 antibody 1-28 (antibody, V domains shown)
VH: AVTLDESGGGLQTPGGALSLVCKASGFDFSDYGMGWVRQAPGKGLEWVAAIRSDGSNPSYGSAVKGRATISKDNGRSTVRLQLNNLRAEDTATYYCAKDGNGYCALDAYRSGGYSCGVYPGSIDAWGHGTEVIVSS
VL: ALTQPSSVSANLEGTVEITCSGSGYGYGWYQQKSPGSAPVTVIYQNDKRPSDIPSRFSGSKSGSTGTLTITGVQVEDEAVYYCGSEDSSTLAGIFGAGTTLTVL

O.D., antigen 100 [15]: 0.27
O.D., antigen column 10 [15]: 0.22
O.D., antigen 100 [16]: 0.15
O.D., antigen column 10 [16]: 0.15
S/N [17]: 7.8
S/N [18]: 1.1
O.D., antigen 100 [19]: 1.91
O.D., antigen column 10 [19]: 1.66
Kd [20]: 0.61 nM
O.D., antigen 100 [21]: 0.16
O.D., antigen column 10 [21]: 0.15
O.D., antigen 100 [22]: 1.88
O.D., antigen column 10 [22]: 1.72
Bmax [23]: 3.37
S/N [24]: 1
S/N [25]: 10
S/N [26]: 1
B3: anti-FAM19A5 antibody P2-A03 (antibody, V domains shown)
VH: QSVEESGGRLVTPGTPLTLTCTVSGFSLNNYDMSWVRQAPGKGLEYIGFMDTDGSAYYATWAKGRFTISRTSTTVDLKMTSPTTEDTATYFCARRGSSYYGGIDIWGPGTPVTVSL
VL: ELDLTQTPASVSEPVGGTVTIKCQASQSIGGNLAWYQQKPGQPPKLLIYRASTLASGVPSRFKGSGSGTDFTLTISDLECADAATYYCQSPAYDPAAYVGNAFGGGTELEILR
modifications: Biotinylated when used as detection antibody in FIG. 6B.
